Assay [1] addresses T1, soluble human ICAM-R (human, UniProt P32942 30-485).
T1 construct: baculovirus/Sf-9 product; also called shICAM-R; ICAM-Rt1
T1 chain: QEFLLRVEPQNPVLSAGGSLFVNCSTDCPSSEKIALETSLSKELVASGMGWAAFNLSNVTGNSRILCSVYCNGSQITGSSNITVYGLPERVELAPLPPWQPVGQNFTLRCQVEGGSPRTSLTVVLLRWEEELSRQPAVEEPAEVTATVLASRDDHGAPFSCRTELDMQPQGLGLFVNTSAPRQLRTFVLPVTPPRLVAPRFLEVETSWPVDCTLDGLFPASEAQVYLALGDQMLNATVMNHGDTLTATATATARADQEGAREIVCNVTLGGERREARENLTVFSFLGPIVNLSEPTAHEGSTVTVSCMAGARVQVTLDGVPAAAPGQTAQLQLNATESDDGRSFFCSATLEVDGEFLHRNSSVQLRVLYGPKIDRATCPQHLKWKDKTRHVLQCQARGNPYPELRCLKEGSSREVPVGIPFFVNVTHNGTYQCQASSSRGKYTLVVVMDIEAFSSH
Description: ELISA on coated shICAM-R. For orientation: In an ELISA, binding on a coated surface is turned into a signal by an enzyme label.

The target of assay [2] is T1, soluble human ICAM-R. In words: blocking of biotinylated murine ICR-8.1 (competitor) binding to ICAM-R.
Assay [3] concerns the target T2, LFA-1 (CD11a/CD18) on cells (human, UniProt P20701 26-1170; P05107 23-769).
T2 construct: whole, on cells; on SKW3, JY, HL-60 cells, neutrophils, or CHO/COS transfectants; also called CD18/CD11a
Description: cell adhesion to coated shICAM-R, peptide 1-2 mg/ml.

Assay [4] has as its target T2, LFA-1 (CD11a/CD18) on cells. Description: JY cell adhesion to plate-bound chimera.
Assay [5] deals with T3, human ICAM-R (human, UniProt P32942 30-547).
T3 construct: On transfected L, CV-1 or COS cells, or native on human leukocytes and cell lines; also called ICAM-3; CDw50
T3 chain: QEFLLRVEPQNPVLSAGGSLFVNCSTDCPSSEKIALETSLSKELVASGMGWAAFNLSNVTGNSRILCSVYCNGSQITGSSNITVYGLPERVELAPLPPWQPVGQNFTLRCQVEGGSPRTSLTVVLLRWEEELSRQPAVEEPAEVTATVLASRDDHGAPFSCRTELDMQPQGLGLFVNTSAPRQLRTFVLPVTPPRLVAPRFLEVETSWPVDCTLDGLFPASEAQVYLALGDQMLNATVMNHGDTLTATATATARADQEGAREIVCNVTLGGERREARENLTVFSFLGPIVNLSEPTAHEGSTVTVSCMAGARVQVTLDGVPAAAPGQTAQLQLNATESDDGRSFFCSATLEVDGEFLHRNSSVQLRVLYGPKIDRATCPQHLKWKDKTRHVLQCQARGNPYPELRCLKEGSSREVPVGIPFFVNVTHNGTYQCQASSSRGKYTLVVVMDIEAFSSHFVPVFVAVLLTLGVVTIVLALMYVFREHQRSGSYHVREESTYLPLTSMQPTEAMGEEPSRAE
In words: FACS, 5 µg/ml. Background: A flow cytometer gives signals particle by particle.

Assay [6] addresses T4, chimeric Protein 3 (ICAM-R domains 1-3 / ICAM-1) (human, UniProt P05362 317-532).
T4 construct: range 317-532; on COS cells; also called Protein number 3; RD1-3.1D4-5
Description: FACS, 5 µg/ml.

The target in assay [7] is T5, human ICAM-1 (human, UniProt P05362 28-532).
T5 construct: whole, on cells; on transfected L or COS cells
Description: FACS, 5 µg/ml.

In assay [8] the target is T3, human ICAM-R. In words: cell-based or functional assay.
Assay [9] deals with T2, LFA-1 (CD11a/CD18) on cells. In words: not described.
Assay [10] concerns the target T6, VLA-4 (α4/β1) on cells (UniProt P13612 34-1032; P05556 21-798, limits assumed).
T6 construct: whole, on cells; on Jurkat cells, T cells or COS transfectants
Description: not described.

The target in assay [11] is Mac-1 (CD11b/CD18) on cells (UniProt P11215 17-1152; P05107 23-769). Description: neutrophil adhesion.
The target of assay [12] is T2, LFA-1 (CD11a/CD18) on cells. In words: neutrophil adhesion.

T2 sequence (P20701 26-1170, chain 1 of 2): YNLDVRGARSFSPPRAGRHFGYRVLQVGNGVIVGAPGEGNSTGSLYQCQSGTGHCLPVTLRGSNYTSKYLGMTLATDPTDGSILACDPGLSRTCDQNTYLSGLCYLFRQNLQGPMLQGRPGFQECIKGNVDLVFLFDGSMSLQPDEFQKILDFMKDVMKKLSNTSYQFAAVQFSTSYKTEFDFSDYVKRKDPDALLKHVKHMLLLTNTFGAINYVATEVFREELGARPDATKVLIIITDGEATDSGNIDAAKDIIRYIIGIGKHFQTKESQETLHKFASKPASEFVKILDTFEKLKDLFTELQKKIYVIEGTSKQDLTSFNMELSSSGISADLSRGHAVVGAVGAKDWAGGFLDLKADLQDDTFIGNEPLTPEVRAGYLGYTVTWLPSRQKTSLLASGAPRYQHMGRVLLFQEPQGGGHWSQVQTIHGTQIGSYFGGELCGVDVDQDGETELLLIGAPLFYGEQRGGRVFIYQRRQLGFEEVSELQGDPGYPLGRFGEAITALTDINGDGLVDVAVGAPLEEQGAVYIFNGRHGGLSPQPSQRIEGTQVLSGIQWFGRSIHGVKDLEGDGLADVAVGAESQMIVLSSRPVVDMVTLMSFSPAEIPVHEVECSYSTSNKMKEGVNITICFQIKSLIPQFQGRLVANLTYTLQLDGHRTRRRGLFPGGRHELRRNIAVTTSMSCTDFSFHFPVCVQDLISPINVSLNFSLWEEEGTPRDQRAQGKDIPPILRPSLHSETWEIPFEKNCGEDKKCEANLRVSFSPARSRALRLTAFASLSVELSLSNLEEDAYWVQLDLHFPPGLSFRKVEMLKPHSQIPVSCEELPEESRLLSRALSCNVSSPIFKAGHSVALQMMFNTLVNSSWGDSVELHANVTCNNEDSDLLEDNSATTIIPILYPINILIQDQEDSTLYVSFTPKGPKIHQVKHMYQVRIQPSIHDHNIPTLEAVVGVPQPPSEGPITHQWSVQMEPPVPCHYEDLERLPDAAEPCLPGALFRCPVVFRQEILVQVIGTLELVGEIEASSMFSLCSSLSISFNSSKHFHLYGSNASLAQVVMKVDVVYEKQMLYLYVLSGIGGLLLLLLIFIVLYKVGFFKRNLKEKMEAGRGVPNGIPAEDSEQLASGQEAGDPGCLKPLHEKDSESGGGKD
T2 sequence (P05107 23-769, chain 2 of 2): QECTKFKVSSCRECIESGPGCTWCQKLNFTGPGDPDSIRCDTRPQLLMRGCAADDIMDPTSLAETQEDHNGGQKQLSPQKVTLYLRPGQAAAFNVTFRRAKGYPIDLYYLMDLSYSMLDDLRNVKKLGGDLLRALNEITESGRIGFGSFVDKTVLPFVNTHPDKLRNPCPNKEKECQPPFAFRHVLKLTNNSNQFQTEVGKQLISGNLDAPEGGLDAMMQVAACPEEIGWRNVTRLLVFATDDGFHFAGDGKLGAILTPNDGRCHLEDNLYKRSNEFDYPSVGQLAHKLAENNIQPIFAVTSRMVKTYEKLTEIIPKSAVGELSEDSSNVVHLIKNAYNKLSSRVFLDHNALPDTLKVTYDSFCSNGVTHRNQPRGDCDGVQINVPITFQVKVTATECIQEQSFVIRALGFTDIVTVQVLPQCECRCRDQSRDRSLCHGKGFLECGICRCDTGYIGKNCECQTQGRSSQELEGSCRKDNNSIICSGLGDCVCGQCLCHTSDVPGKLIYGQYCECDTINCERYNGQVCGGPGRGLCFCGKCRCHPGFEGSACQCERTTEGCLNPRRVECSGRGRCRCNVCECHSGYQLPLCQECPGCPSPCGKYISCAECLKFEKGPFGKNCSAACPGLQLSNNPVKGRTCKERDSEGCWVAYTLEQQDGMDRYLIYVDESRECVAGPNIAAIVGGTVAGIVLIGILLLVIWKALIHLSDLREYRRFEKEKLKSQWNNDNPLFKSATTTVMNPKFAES
T5 sequence (P05362 28-532): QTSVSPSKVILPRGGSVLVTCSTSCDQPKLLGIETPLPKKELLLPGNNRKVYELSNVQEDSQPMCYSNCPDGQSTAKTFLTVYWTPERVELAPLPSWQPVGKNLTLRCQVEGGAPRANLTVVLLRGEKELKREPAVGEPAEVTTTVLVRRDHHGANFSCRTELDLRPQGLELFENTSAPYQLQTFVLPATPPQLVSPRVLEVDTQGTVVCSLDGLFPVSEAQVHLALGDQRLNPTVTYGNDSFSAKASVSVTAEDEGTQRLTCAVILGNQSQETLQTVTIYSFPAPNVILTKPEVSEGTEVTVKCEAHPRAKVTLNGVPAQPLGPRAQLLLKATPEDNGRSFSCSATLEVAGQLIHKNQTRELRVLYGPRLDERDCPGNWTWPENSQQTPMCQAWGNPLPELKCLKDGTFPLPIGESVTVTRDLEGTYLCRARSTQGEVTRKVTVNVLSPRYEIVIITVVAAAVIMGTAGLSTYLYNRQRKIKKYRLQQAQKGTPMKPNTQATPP

B1: ICR-8.1 miHuVHI/HuVK (antibody, human IgG4, V domains shown)
VH: QIQLVQSGAEVKKPGASVKVSCKASGYTFTDCIILWVRQAPGQGLEWMGKINPYFGTTTYAQKFQGRVTITADTSTSTAYMELSSLRSEDTAVYYCARKEAYPDAMDYWGQGTLVTVSS
VL: DIVMTQSPLSLPVTPGEPASISCRSSQSLVHSNGDTYLHWYLQKPGQSPQLLIYKVSNRFSGVPDRFSGSGSGTDFTLKISRVEAEDVGVYYCSQSTHVPYTFGQGTKVEIK
notes: human IgG4 and human kappa constant regions
With B1, the “fold improvement in binding over the other recombinant ICR-8.1 antibodies” value in [1] was about 2 fold. For the same molecule, the “fold less well in competition than murine ICR-8.1” value in assay [2] was about 2 fold.

B2: ICR-8.1 miHuVHI/MuVK (antibody, human IgG4, V domains shown)
VH: QIQLVQSGAEVKKPGASVKVSCKASGYTFTDCIILWVRQAPGQGLEWMGKINPYFGTTTYAQKFQGRVTITADTSTSTAYMELSSLRSEDTAVYYCARKEAYPDAMDYWGQGTLVTVSS
VL: DAVMTQTPLSLPVSLGDQASISCRSSQSLVHSNGDTYLHWYLQKPGQSPQLLIYKVSNRFSGVPDRFSGSGSGTDFTLKLSRVEAEDLGVYFCSQSTHVPYTFGGGTKLEIK
notes: as for B1
As to B2, the “fold improvement in binding over the other recombinant ICR-8.1 antibodies” value in assay [1] is about 2 fold. Moreover, in assay [2], the “fold less well in competition than murine ICR-8.1” value is about 2 fold. For the molecule EKIALET [ICAM-R peptide 32-38], the “% Inhibition CD18-Dependent Binding (SKW3)” value in assay [3] turned out to be 0%.

B3: domain deletion ICAM-R/IgG chimera with ICAM-R domains 3, 4 and 5 (Fc fusion)
chain: VLPVTPPRLVAPRFLEVETSWPVDCTLDGLFPASEAQVYLALGDQMLNATVMNHGDTLTATATATARADQEGAREIVCNVTLGGERREARENLTVFSFLGPIVNLSEPTAHEGSTVTVSCMAGARVQVTLDGVPAAAPGQTAQLQLNATESDDGRSFFCSATLEVDGEFLHRNSSVQLRVLYGPKIDRATCPQHLKWKDKTRHVLQCQARGNPYPELRCLKEGSSREVPVGIPFFVNVTHNGTYQCQASSSRGKYTLVVVMDIEAFSSH
notes: not shown: human IgG1 hinge, CH2, CH3
For the molecule B3, in [4], the binding result is listed as “no binding”.

Turning to GERREA [ICAM-R peptide 271-276], in [3], the “% Inhibition CD18-Dependent Binding (SKW3)” value is 0%.

B4: ICR-8.1 (antibody, mouse IgG1, V domains shown)
VH: EIQLQQTGPELVKPGASVKISCKASGYSFTDCIILWVKQSHGKGLEWIGKINPYFGTTTYNLKFKGKATLTVDKSSSTAHMQLNSLTSEDSAVYYCARKEAYPDAMDYWGQGTSVTVSS
VL: DAVMTQTPLSLPVSLGDQASISCRSSQSLVHSNGDTYLHWYLQKPGQSPQLLIYKVSNRFSGVPDRFSGSGSGTDFTLKLSRVEAEDLGVYFCSQSTHVPYTFGGGTKLEIK
notes: murine IgG1, kappa; also called 46D7E; ATCC HB 11232
As for B4, the “percent positive COS cell transfectants” value in assay [5] turned out to be 48.9%; in assay [6], 44.9%; in assay [7], 1.08%. For the same molecule, the “IC50 (µg/ml), inhibition of SEA-induced PBL proliferation by plate-bound antibody” value in assay [8] was determined as 1 µg/mL. With GDQML [ICAM-R peptide 230-234 (GDQML)], in assay [3], the “% Inhibition CD18-Dependent Binding (SKW3)” value worked out at 0%. With DGQST [ICAM-1 peptide 70-74 (DGQST)], the “% Inhibition CD18-Dependent Binding (SKW3)” value in [3] turned out to be 0%.

B5: ICAM-R/IgG variant D231H-Ig (Fc fusion)
chain: QEFLLRVEPQNPVLSAGGSLFVNCSTDCPSSEKIALETSLSKELVASGMGWAAFNLSNVTGNSRILCSVYCNGSQITGSSNITVYGLPERVELAPLPPWQPVGQNFTLRCQVEGGSPRTSLTVVLLRWEEELSRQPAVEEPAEVTATVLASRDDHGAPFSCRTELDMQPQGLGLFVNTSAPRQLRTFVLPVTPPRLVAPRFLEVETSWPVDCTLDGLFPASEAQVYLALGHQMLNATVMNHGDTLTATATATARADQEGAREIVCNVTLGGERREARENLTVFSFLGPIVNLSEPTAHEGSTVTVSCMAGARVQVTLDGVPAAAPGQTAQLQLNATESDDGRSFFCSATLEVDGEFLHRNSSVQLRVLYGPKIDRATCPQHLKWKDKTRHVLQCQARGNPYPELRCLKEGSSREVPVGIPFFVNVTHNGTYQCQASSSRGKYTLVVVMDIEAFSSH
notes: as for B3
Turning to B5, the binding result in assay [9] and in [10] was “binds” throughout.

B6: ICAM-R/IgG chimera E37/A (Fc fusion)
chain: QEFLLRVEPQNPVLSAGGSLFVNCSTDCPSSEKIALATSLSKELVASGMGWAAFNLSNVTGNSRILCSVYCNGSQITGSSNITVYGLPERVELAPLPPWQPVGQNFTLRCQVEGGSPRTSLTVVLLRWEEELSRQPAVEEPAEVTATVLASRDDHGAPFSCRTELDMQPQGLGLFVNTSAPRQLRTFVLPVTPPRLVAPRFLEVETSWPVDCTLDGLFPASEAQVYLALGDQMLNATVMNHGDTLTATATATARADQEGAREIVCNVTLGGERREARENLTVFSFLGPIVNLSEPTAHEGSTVTVSCMAGARVQVTLDGVPAAAPGQTAQLQLNATESDDGRSFFCSATLEVDGEFLHRNSSVQLRVLYGPKIDRATCPQHLKWKDKTRHVLQCQARGNPYPELRCLKEGSSREVPVGIPFFVNVTHNGTYQCQASSSRGKYTLVVVMDIEAFSSH
notes: also called ICAM-R E37/A; not shown: human IgG1 hinge, CH2, CH3
With B6, the figures for the binding result in assay [11] and in assay [4] were “binds” and “no binding”, respectively.

B7: ICAM-R/His fusion protein (receptor, not shown: small tags and cut ends)
chain: QEFLLRVEPQNPVLSAGGSLFVNCSTDCPSSEKIALETSLSKELVASGMGWAAFNLSNVTGNSRILCSVYCNGSQITGSSNITVYGLPERVELAPLPPWQPVGQNFTLRCQVEGGSPRTSLTVVLLRWEEELSRQPAVEEPAEVTATVLASRDDHGAPFSCRTELDMQPQGLGLFVNTSAPRQLRTFVLPVTPPRLVAPRFLEVETSWPVDCTLDGLFPASEAQVYLALGDQMLNATVMNHGDTLTATATATARADQEGAREIVCNVTLGGERREARENLTVFSFLGPIVNLSEPTAHEGSTVTVSCMAGARVQVTLDGVPAAAPGQTAQLQLNATESDDGRSFFCSATLEVDGEFLHRNSSVQLRVLYGPKIDRATCPQHLKWKDKTRHVLQCQARGNPYPELRCLKEGSSREVPVGIPFFVNVTHNGTYQCQASSSRGKYTLVVVMDIEAFSSH
notes: CHO product
Regarding B7, the binding result in [12] and in assay [11] was “binds” throughout.

B8: ICAM-R/IgG variant E37T-Ig (Fc fusion)
chain: QEFLLRVEPQNPVLSAGGSLFVNCSTDCPSSEKIALASSLSKELVASGMGWAAFNLSNVTGNSRILCSVYCNGSQITGSSNITVYGLPERVELAPLPPWQPVGQNFTLRCQVEGGSPRTSLTVVLLRWEEELSRQPAVEEPAEVTATVLASRDDHGAPFSCRTELDMQPQGLGLFVNTSAPRQLRTFVLPVTPPRLVAPRFLEVETSWPVDCTLDGLFPASEAQVYLALGDQMLNATVMNHGDTLTATATATARADQEGAREIVCNVTLGGERREARENLTVFSFLGPIVNLSEPTAHEGSTVTVSCMAGARVQVTLDGVPAAAPGQTAQLQLNATESDDGRSFFCSATLEVDGEFLHRNSSVQLRVLYGPKIDRATCPQHLKWKDKTRHVLQCQARGNPYPELRCLKEGSSREVPVGIPFFVNVTHNGTYQCQASSSRGKYTLVVVMDIEAFSSH
notes: as for B3
For the molecule B8, the binding result in assay [9] is given as “no binding”.

B9: ICR-1.1 antibody with HuVK (hybrid) (antibody, human IgG4, V domains shown)
VH: QVQLQQSGAELAKPGASVKMSCKASGYTFTVYWMHWVKQRPGQGLEWIGYINPNTDYTEYNQRFQDKATLTADKSSSTAYMQLSSLTSEDSAVYYCARWGGNSYGLDYWGQGTSVTVSS
VL: DIQMTQSPSSLSASVGDRVTITCSASSSVSYIYWYQQKPGKAPKLLIYLTSNLASGVPSRFSGSGSGTDFTLTISSLQPEDFATYYCQQWKSIPLTFGQGTKLEIK
notes: human IgG4 and human kappa constant regions; also called HuVK version
As to B9, the “fold deficit in binding against the murine progenitor chain” value in assay [1] came out at 2 fold.

Source of the values: patent US20010029293A1 (ICOS, published 2001).
